# Source: PMC4605270
# Molecular target: Borrelia burgdorferi hybrid histidine kinase Hk1 periplasmic sensor domain D1 (Borrelia burgdorferi strain 5A4 NP1)
# Experiment: SEC
substance,measurement,value
Borrelia burgdorferi hybrid histidine kinase Hk1 periplasmic sensor domain D1 (domain or fragment),stoichiometry N,2
